From paper PMC8647080, “Evolution of CPEB4 Dynamics Across its Liquid–Liquid Phase Separation Transition” (The Journal of Physical Chemistry. B, 2021)

Target: the molecule itself
Experiment: CW-EPR line shape of the spin label; X band, 2-45 °C, 10-112 μM, 100 mM NaCl, pH 8; spectra simulated with three components (I monomer, II and III in assemblies)

B1: spin labeled CPEB4NTD-C441S/G320C (domain or fragment, human, UniProt Q17RY0-2 1-448, looked up)
chain: MGDYGFGVLVQSNTGNKSAFPVRFHPHLQPPHHHQNATPSPAAFINNNTAANGSSAGSAWLFPAPATHNIQDEILGSEKAKSQQQEQQDPLEKQQLSPSPGQEAGILPETEKAKSEENQGDNSSENGNGKEKIRIESPVLTGFDYQEATGLGTSTQPLTSSASSLTGFSNWSAAIAPSSSTIINEDASFFHQGGVPAASANNGALLFQNFPHHVSPGFGGSFSPQIGPLSQHHPHHPHFQHHHSQHQQQRRSPASPHPPPFTHRNAAFNQLPHLANNLNKPPSPWSSYQSPSPTPSSSWSPGGGGYGGWGGSQGRDHRRCLNGGITPLNSISPLKKNFASNHIQLQKYARPSSAFAPKSWMEDSLNRADNIFPFPDRPRTFDMHSLESSLIDIMRAENDTIKARTYGRRRGQSSLFPMEDGFLDDGRGDQPLHSGLGSPHSFSHQNGE
modifications: nitroxide spin label on the introduced cysteine 320 (marked * in the paper)
notes: also called C441S/G320C CPEB4NTD mutant; source: E. coli BL21(DE3), purified using the same protocol (Ni2+-NTA, Superdex-200)
B1: binds.
